In US12059429B2, “Hornerin: a novel non-VEGF mediated angiogenic protein expressed in both human and mouse angiogenic endothelial cells and human pancreatic cancer cells” (University of Virginia Patent Foundation, priority 2018, dated 2024):

Test system: hornerin
Assay: Immunoblot of hornerin in HUVECs treated with growth factors
Type: cell-based, human
Conditions: 24 hours treatment; growth factors at published B-max concentrations, EGF at increasing concentrations
Protocol: HUVECs were cultured in 10 cm dishes for 24 hours prior to a change to media containing VEGF (at B-max concentration), TCM, or VC. After 24 hours treatment, the cells were washed with DPBST two times and lysed with radioimmunoprecipitation assay (RIPA) buffer (Thermo Scientific). Lysate protein concentrations were measured by the bicinchoninic acid assay (Pierce, Waltham, MA, USA) and equivalent amounts of protein were loaded into precast 4-15% tris-glycine eXtended (TGX) polyacrylamide gels (Bio-Rad, Hercules, CA, USA). The proteins were resolved by electrophoresis and transferred to nitrocellulose membranes using the iBlot system (Invitrogen, Carlsbad, CA, USA). The membranes were then washed in Tris-buffered saline+1% Tween-20 (TBST), blocked for 30 minutes in TBST+2% milk solution, and incubated overnight at 4° C. with primary antibodies anti-hornerin (Abcam, Cambridge, UK, ab78909; (1:1000)) and anti-HSP90 (Cell Signaling Technology, Danvers, MA, USA, 4877; (1:1000)). The following day the membranes were washed and subsequently incubated with the secondary antibodies anti-goat HRP (R&D Systems, Minneapolis, MN, USA, HAF109; 1:5000) and anti-rabbit HRP (GE Healthcare, NA934V; 1:5000) for 45 minutes at RT. […]
Major constituents of TCM were determined using a Human Angiogenesis Antibody Array (Affymetrix, Santa Clara, CA, USA) per manufacturer's instructions. […]

B1: IL-12: growth factor found in TCM, added to HUVECs at published B-max concentration (protein, UniProt P29459 23-219; P29460 23-328, looked up)
Interleukin-12 subunit alpha: RNLPVATPDPGMFPCLHHSQNLLRAVSNMLQKARQTLEFYPCTSEEIDHEDITKDKTSTVEACLPLELTKNESCLNSRETSFITNGSCLASRKTSFMMALCLSSIYEDLKMYQVEFKTMNAKLLMDPKRQIFLDQNMLAVIDELMQALNFNSETVPQKSSLEEPDFYKTKIKLCILLHAFRIRAVTIDRVMSYLNAS
Interleukin-12 subunit beta: IWELKKDVYVVELDWYPDAPGEMVVLTCDTPEEDGITWTLDQSSEVLGSGKTLTIQVKEFGDAGQYTCHKGGEVLSHSLLLLHKKEDGIWSTDILKDQKEPKNKTFLRCEAKNYSGRFTCWWLTTISTDLTFSVKSSRGSSDPQGVTCGAATLSAERVRGDNKEYEYSVECQEDSACPAAEESLPIEVMVDAVHKLKYENYTSSFFIRDIIKPDPPKNLQLKPLKNSRQVEVSWEYPDTWSTPHSYFSLTFCVQVQGKSKREKKDRVFTDKTSATVICRKNASISVRAQDRYYSSSWSEWASVPCS
- hornerin expression in HUVECs: might stimulate hornerin expression
